The numbers were not newly measured in publication PMC5590664, which cites them from elsewhere.

The target of the data set is HIV-1 capsid protein (full-length) (Human immunodeficiency virus 1) (UniProt O93182).

Chain of HIV-1 capsid protein (full-length) (O93182 133-363): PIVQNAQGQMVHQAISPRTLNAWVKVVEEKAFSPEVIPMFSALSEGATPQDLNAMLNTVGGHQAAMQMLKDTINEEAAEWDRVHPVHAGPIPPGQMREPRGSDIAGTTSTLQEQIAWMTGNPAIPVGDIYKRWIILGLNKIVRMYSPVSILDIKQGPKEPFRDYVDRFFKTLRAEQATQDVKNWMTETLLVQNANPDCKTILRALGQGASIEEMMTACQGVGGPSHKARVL

For the substance “HIV-1 capsid protein (full-length) (from UniProt O93182)”, the Kd was 40 µM.
